According to patent publication US20030148956A1 (PROCTER AND GAMBLE, published 2003):
Ends that are not written are not given here.

T1: CRF2R
T1 sequence (Q13324 whole entry, species assumed, looked up): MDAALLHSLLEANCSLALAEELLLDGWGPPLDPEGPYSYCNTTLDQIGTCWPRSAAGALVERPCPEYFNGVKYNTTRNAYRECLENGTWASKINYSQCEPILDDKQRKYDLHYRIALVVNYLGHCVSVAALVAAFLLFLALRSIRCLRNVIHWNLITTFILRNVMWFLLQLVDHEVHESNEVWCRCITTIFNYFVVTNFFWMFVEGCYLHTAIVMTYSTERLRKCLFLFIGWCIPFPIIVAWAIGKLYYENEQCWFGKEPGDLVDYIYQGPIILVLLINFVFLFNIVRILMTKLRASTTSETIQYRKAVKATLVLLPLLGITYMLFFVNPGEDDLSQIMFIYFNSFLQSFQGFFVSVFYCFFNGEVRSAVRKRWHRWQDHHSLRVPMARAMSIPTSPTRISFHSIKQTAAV


target: CRF1R; assay: cell-based or functional assay

Binder	CRF1R EC50	CRF1R Emax
SQEPPISLDLPFGLLREVLEMTKADQLAQQAHSNRKLLDIA-NH2 [SEQ ID NO 103]	100 nM	5.75%
SQEPPISLDLTIHLLREVLEMTKADQLAQQAHSNRKLLDIA-NH2 [SEQ ID NO 87]	100 nM	5.3%
SQEPPISLDLPTGLLREVLEMTKADQLAQQAHSNRKLLDIA-NH2 [SEQ ID NO 98]	100 nM	4%
SQEPPISLDLPFELLREVLEMTKADQLAQQAHSNRKLLDIA-NH2 [SEQ ID NO 97]	100 nM	4.25%
SQEPPISLDLPFYLLREVLEMTKADQLAQQAHSNRKLLDIA-NH2 [SEQ ID NO 96]	100 nM	16.3%
SQEPPISLDLPLGLLREVLEMTKADQLAQQAHSNRKLLDIA-NH2 [SEQ ID NO 90]	100 nM	4%
SQEPPISLDLPTELLREVLEMTKADQLAQQAHSNRKIIDIA-NH2 [SEQ ID NO 92]	100 nM	4.6%
SQEPPISLDLPIGLLREVLEMTKADQLAQQAHSNRKLLDIA-NH2 [SEQ ID NO 93]	100 nM	5%
SQEPPISLDLTFGLLREVLEMTKADQLAQQAHSNRKLLDIA-NH2 [SEQ ID NO 88]	100 nM	11.2%
SQEPPISLDLPTHLLREVLEMTKADQLAQQAHSNRKLLDIA-NH2 [SEQ ID NO 99]	100 nM	4.35%
SQEPPISLDLPLYLLREVLEMTKADQLAQQAHSNRKLLDIA-NH2 [SEQ ID NO 101]	100 nM	7.35%
IVLSLDVPIGLLQILLEQARARAAREQATTQARILARV-NH2 [SEQ ID NO 9]	100 nM	10%
SQEPPISLDLPLHLLREVLEMTKADQLAQQAHSNRKLLDIA-NH2 [SEQ ID NO 102]	100 nM	7.8%
SQEPPISLDLPLQLLREVLEMTKADQLAQQAHSNRKLLDIA-NH2 [SEQ ID NO 95]	100 nM	5.55%
SQEPPISLDLPFQLLREVLEMTKADQLAQQAHSNRKLLDIA-NH2 [SEQ ID NO 91]	100 nM	4%
SQEIVLSLDVPIGLLREVLEMTKADQLAQQAHSNRKLLDIA-NH2 [SEQ ID NO 7]	100 nM	4%
SQEPPISLDLPIHLLREVLEMTKADQLAQQAHSNRKLLDIA-NH2 [SEQ ID NO 94]	100 nM	7.3%
SQEPPISLDLPIQLLREVLEMTKADQLAQQAHSNRKLLDIA-NH2 [SEQ ID NO 100]	100 nM	6.25%

Second part, the binder after the results:

CRF1R EC50	CRF1R Emax	Binder
> 100 nM	6%	IVLSLDVPIGLLQILLEQARQRAAREQATTNARILARV-NH2 [SEQ ID NO 114]
100 nM	5.2%	SQEPPISLDLPTQLLREVLEMTKADQLAQQAHSNRKLLDIA-NH2 [SEQ ID NO 105]
> 100 nM	10%	IVLSLDVPIGLLQILLEQAKAEAAREQATTNARILARV-NH2 [SEQ ID NO 112]
> 100 nM	9%	IVLSLDVPIGLLQILLEQAKQRAAREQATTNARILARV-NH2 [SEQ ID NO 110]
100 nM	11.1%	SQEPPISLDLPFHLLREVLEMTKADQLAQQAHSNRKLLDIA-NH2 [SEQ ID NO 104]
100 nM		IVLSLDVPIGLLQILLEQAKARAAREQATTNARILARV-NH2 [SEQ ID NO 109]
> 100 nM	4%	IVLSLDVPIGLLQILLEQERAEAAREQATTNARILARV-NH2 [SEQ ID NO 113]
> 100 nM	3%	IVLSLDVPIGLLQILLEQTKADAAREQATTNARILARV-NH2 [SEQ ID NO 108]
100 nM	4.8%	SQEPPISLDLPTYLLREVLEMTKADQLAQQAHSNRKLLDIA-NH2 [SEQ ID NO 106]
> 100 nM	9%	IVLSLDVPIGLLQILLEQERQRAAREQATTNARILARV-NH2 [SEQ ID NO 111]

target: T1, CRF2R; assay: cell-based or functional assay

Binder	CRF2R EC50	CRF2R Emax
SQEPPISLDLPFGLLREVLEMTKADQLAQQAHSNRKLLDIA-NH2 [SEQ ID NO 103]	100 nM	4.85%
SQEPPISLDLTIHLLREVLEMTKADQLAQQAHSNRKLLDIA-NH2 [SEQ ID NO 87]	100 nM	14.7%
SQEPPISLDLPTGLLREVLEMTKADQLAQQAHSNRKLLDIA-NH2 [SEQ ID NO 98]	100 nM	5.5%
SQEPPISLDLPFELLREVLEMTKADQLAQQAHSNRKLLDIA-NH2 [SEQ ID NO 97]	100 nM	7.6%
SQEPPISLDLPFYLLREVLEMTKADQLAQQAHSNRKLLDIA-NH2 [SEQ ID NO 96]	100 nM	12.5%
SQEPPISLDLPLGLLREVLEMTKADQLAQQAHSNRKLLDIA-NH2 [SEQ ID NO 90]	100 nM	12.2%
SQEPPISLDLPTELLREVLEMTKADQLAQQAHSNRKIIDIA-NH2 [SEQ ID NO 92]	100 nM	15.8%
SQEPPISLDLPIGLLREVLEMTKADQLAQQAHSNRKLLDIA-NH2 [SEQ ID NO 93]	100 nM	6.4%
SQEPPISLDLTFGLLREVLEMTKADQLAQQAHSNRKLLDIA-NH2 [SEQ ID NO 88]	100 nM	12.6%
SQEPPISLDLPTHLLREVLEMTKADQLAQQAHSNRKLLDIA-NH2 [SEQ ID NO 99]	100 nM	4.35%
SQEPPISLDLPLYLLREVLEMTKADQLAQQAHSNRKLLDIA-NH2 [SEQ ID NO 101]	100 nM	6.95%
IVLSLDVPIGLLQILLEQARARAAREQATTQARILARV-NH2 [SEQ ID NO 9]	100 nM	34%
SQEPPISLDLPLHLLREVLEMTKADQLAQQAHSNRKLLDIA-NH2 [SEQ ID NO 102]	100 nM	13.5%
SQEPPISLDLPLQLLREVLEMTKADQLAQQAHSNRKLLDIA-NH2 [SEQ ID NO 95]	100 nM	8.25%
SQEPPISLDLPFQLLREVLEMTKADQLAQQAHSNRKLLDIA-NH2 [SEQ ID NO 91]	100 nM	7.1%
SQEIVLSLDVPIGLLREVLEMTKADQLAQQAHSNRKLLDIA-NH2 [SEQ ID NO 7]	100 nM	19%
SQEPPISLDLPIHLLREVLEMTKADQLAQQAHSNRKLLDIA-NH2 [SEQ ID NO 94]	100 nM	6.15%
SQEPPISLDLPIQLLREVLEMTKADQLAQQAHSNRKLLDIA-NH2 [SEQ ID NO 100]	100 nM	9.85%

Second part, the binder after the results:

CRF2R EC50	CRF2R Emax	Binder
3.42 nM	100%	IVLSLDVPIGLLQILLEQARQRAAREQATTNARILARV-NH2 [SEQ ID NO 114]
100 nM	9.15%	SQEPPISLDLPTQLLREVLEMTKADQLAQQAHSNRKLLDIA-NH2 [SEQ ID NO 105]
12.3 nM	100%	IVLSLDVPIGLLQILLEQAKAEAAREQATTNARILARV-NH2 [SEQ ID NO 112]
11 nM	100%	IVLSLDVPIGLLQILLEQAKQRAAREQATTNARILARV-NH2 [SEQ ID NO 110]
100 nM	4.5%	SQEPPISLDLPFHLLREVLEMTKADQLAQQAHSNRKLLDIA-NH2 [SEQ ID NO 104]
11.8 nM		IVLSLDVPIGLLQILLEQAKARAAREQATTNARILARV-NH2 [SEQ ID NO 109]
11.3 nM	98%	IVLSLDVPIGLLQILLEQERAEAAREQATTNARILARV-NH2 [SEQ ID NO 113]
79 nM	97%	IVLSLDVPIGLLQILLEQTKADAAREQATTNARILARV-NH2 [SEQ ID NO 108]
100 nM	6.1%	SQEPPISLDLPTYLLREVLEMTKADQLAQQAHSNRKLLDIA-NH2 [SEQ ID NO 106]
10.9 nM	99%	IVLSLDVPIGLLQILLEQERQRAAREQATTNARILARV-NH2 [SEQ ID NO 111]
